Biological target: the molecule itself
Assay: FRET or BRET

B1: CCAAT/Enhancer Binding Protein α (C/EBPα) (natural protein, UniProt P05554 244-358, looked up)
chain: GPGGSLKGLAGPHPDLRTGGGGGGGAGAGKAKKSVDKNSNEYRVRRERNNIAVRKSRDKAKQRNVETQQKVLELTSDNDRLRKRVEQLSRELDTLRGIFRQLPESSLVKAMGNCA
BRET ratio (Y ÷ B): 0.39
